For one experiment, the target named is T1, human PACAP27 (human, C-terminal leucine is amidated; 125I-labelled in Example 10).
T1 peptide: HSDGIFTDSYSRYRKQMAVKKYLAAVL
The experiment in a line: SPR, Ab immobilised. The protocol:
[The procedure below names another target; the source says it served here with some conditions changed.] (§1) Binding affinities of monoclonal antibodies for human PACAP were estimated using SPR on the PROTEON™ XPR36 (Bio-Rad, Hercules, Calif.). Antibody was immobilized to the surface of general amine coupling (“GLC” or “GLM”) Chips (Bio-Rad, Hercules, Calif.). A dilution series of human PACAP38 (SEQ ID NO: 1241) prepared in 1×PBST Buffer (4.3 mM Na Phosphate, 1.4 mM K Phosphate, 135 mM NaCl, 2.7 mM KCl 0.05% Polysorbate-20) purchased from Teknova (Cat# P1192, Teknova, Hollister, Calif.) and supplemented with 0.25 M arginine (from J.T. BAKER®), 0.2 mg/ml BSA (Jackson Immuno Research Labs, West Grove, Pa.), and 0.005% sodium azide (VWR International, Radnor, Pa.) with the pH adjusted to 7 was used to query the antibodies. Antigen (ranging from 1.23 nM to 100 nM) was typically run sequentially with association times of 2-4 minutes and dissociation times of 3-120 minutes grouped with the PROTEON™ Manager Software (v3.1.0.6 (Bio-Rad, Hercules, Calif.)) and fitted using a 1:1 Langmuir binding model. Surfaces were regenerated between analyte queries using 0.85% Phosphoric Acid.
(In general: SPR reads the build-up and loss of mass on a sensor chip optically.)

The next experiment concerns the target T2, human PACAP38 (human, not fully specified; C-terminal lysine is amidated; N-terminal or C-terminal biotin in the HTRF and PC-12 cell binding assays).
T2 construct: synthetic peptide, bought; also called huPACAP (1-38)
T2 peptide: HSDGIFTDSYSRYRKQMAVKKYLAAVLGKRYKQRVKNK
The experiment in a line: SPR, Ab immobilised. The procedure: as §1

B1: anti-PACAP antibody Ab10 (antibody, V domains shown)
VH: QSVEESGGRLVTPGTPLTLTCTVSGIDLNSYYMTWVRQAPGKGLEWIGFIDAGGDAYYASWAKGRFTISKTSTTVDLKITSPTTEDTATYFCARDLDLWGQGTLVTVSS
VL: AAVLTQTPSPVSAAVGGTVTINCQSSESVYGNYLAWFQQKPGQPPKLLIYEASKLESGVPSRFSGSGSGTQFTLTISDLQCDDAATYYCAGGDISEGVAFGGGTEVVVKR
In the experiment with human PACAP27, B1 registered a Kd of 0.01 nM and a koff of 1e-05 s⁻¹.

B2: anti-PACAP antibody Ab10.H (antibody, V domains shown)
VH: EVQLVESGGGLVQPGGSLRLSCAASGIDLNSYYMTWVRQAPGKGLEWIGFIDAGGDAYYASWAKGRFTISRDNSKNTVYLQMNSLRAEDTAVYFCARDLDLWGQGTLVTVSS
VL: DAQLTQSPSTLSASVGDRVTITCQSSESVYGNYLAWFQQKPGKAPKFLIYEASKLESGVPSRFSGSGSGTEFTLTISSLQPDDFATYYCAGGDISEGVAFGGGTKVEIKR
In the experiment with human PACAP38, B2 gave a Kd of 0.029 nM and a koff of 1e-05 s⁻¹.

Broadly, the Kd is the free concentration of one partner at which half of the binding sites on the other are occupied at equilibrium, for simple one-to-one binding. Low values mean tighter binding, high ones weaker binding. For orientation: koff means a measure of how fast the partners let go of each other. A high value points to fast dissociation.
